Literature values as cited in paper PMC4245983 (Biochemistry, 2014).
Positions count from the first letter of the chain named. Names and notes keep the numbering of the source. “Also recorded” adds a separate entry of the source.

Key:
[1] = system: IscU
[2] = system: HscA; conditions: read-out: Km of WT HscA (ATP)
[3] = system: HscA; conditions: compared to DnaK
[4] = target: WT HscA; conditions: read-out: Kd^ATP of WT HscA
[5] = system: HscA; conditions: 25 °C; background statement, no reference given
[6] = system: [2Fe-2S] cluster transfer
[7] = system: Hsc70 NBD; conditions: NBD with interdomain linker; ref 32 (b59 prints ref 23)

B1: WT HscA: specialized Hsp70-type chaperone (66 kDa) of E. coli (protein, UniProt P0A6Z1 1-616, looked up)
chain: MALLQISEPGLSAAPHQRRLAAGIDLGTTNSLVATVRSGQAETLADHEGRHLLPSVVHYQQQGHSVGYDARTNAALDTANTISSVKRLMGRSLADIQQRYPHLPYQFQASENGLPMIETAAGLLNPVRVSADILKALAARATEALAGELDGVVITVPAYFDDAQRQGTKDAARLAGLHVLRLLNEPTAAAIAYGLDSGQEGVIAVYDLGGGTFDISILRLSRGVFEVLATGGDSALGGDDFDHLLADYIREQAGIPDRSDNRVQRELLDAAIAAKIALSDADSVTVNVAGWQGEISREQFNELIAPLVKRTLLACRRALKDAGVEADEVLEVVMVGGSTRVPLVRERVGEFFGRPPLTSIDPDKVVAIGAAIQADILVGNKPDSEMLLLDVIPLSLGLETMGGLVEKVIPRNTTIPVARAQDFTTFKDGQTAMSIHVMQGERELVQDCRSLARFALRGIPALPAGGAHIRVTFQVDADGLLSVTAMEKSTGVEASIQVKPSYGLTDSEIASMIKDSMSYAEQDVKARMLAEQKVEAARVLESLHGALAADAALLSAAERQVIDDAAAHLSEVAQGDDVDAIEQAIKNVDKQTQDFAARRMDQSVRRALKGHSVDEV
modifications: full-length
For B1, the “preferential binding to conformational state of IscU” value [1] is given as “binds preferentially to the D-state”, the Km [2] is given as 12.6 µM and the “binding affinity for ATP, fold weaker than DnaK” value [3] is given as 10^3 fold. For the same molecule, the “rate of ADP dissociation, fold higher than DnaK” value [3] was > 10^3 fold, the Kd [4] was 26 ± 7 µM and the “intrinsic ATPase activity” value [5] was 0.02 min^–1.

B2: HscA T212V (protein, UniProt P0A6Z1 1-616, looked up, variant T212V)
Chaperone protein HscA: B1 chain with T212V
In the case of B2, the “effect of ATPase deficient mutant on [2Fe-2S] cluster transfer” value [6] is given as “abolishes [2Fe-2S] cluster transfer”.

B3: auxilin: J-protein of Hsc70 (protein, UniProt Q27974 1-910, looked up)
Auxilin: MDSSGASSPDMEPSYGGGLFDMVKGGAGRLFSNLKDNLKDTLKDTSSRVIQSVTSYTKGDLDFTYVTSRIIVMSFPLDSVDIGFRNQVDDIRSFLDSRHLDHYTVYNLSPKSYRTAKFHSRVSECSWPIRQAPSLHNLFAVCRNMYNWLLQNPKNVCVVHCLDGRAASSILVGAMFIFCNLYSTPGPAVRLLYAKRPGIGLSPSHRRYLGYMCDLLADKPYRPHFKPLTIKSITVSPVPFFNKQRNGCRPYCDVLIGETKIYTTCADFERMKEYRVQDGKIFIPLSITVQGDVVVSMYHLRSTIGSRLQAKVTNTQIFQLQFHTGFIPLDTTVLKFTKPELDACDVPEKYPQLFQVTLDVELQPHDKVMELTPPWEHYCTKDVNPSILFSSHQEHQDTLVLGGQAPIDIPPDNPRHFGQGGFFSTLCWQDQKSEKSFCEEDHAALVNQESEQSDDELLTLSSPHGNANGDKPHAARKPSKKQQEPAAPAPPEDVDLLGLEGSAVSKNFSSPAAPPSNSELLSDLFGGGGAAGPVQSGQSGVDDVFHPSGPTSTQSTPRRSATSTSASPTLRVGEGATFDPFGAPSKPSGQDLLGSFLNTASASSDPFLQPTRSPSPTVHASSTPAVNIQPDVSGAWDWHTKPGGFGMGSKSAATSPTGSSHGTPTHQNKPQTLDPFADLGTLGGSSFASKPSTPTGLGGGFPPLSSPQKASPQPMGGGWQQGGGYNWQQTQSKPQSSMPHSSPQNRPNYNVSFSSMPGGQNERGKAAANLEGKQKAADFEDLLSGQGFNAHKDKKGPRTIAEMRKEEMAKEMDPEKLKILEWIEGKERNIRALLSTMHTVLWAGETKWKPVGMADLVTPEQVKKVYRKAVLVVHPDKATGQPYEQYAKMIFMELNDAWSEFENQGQKPLY
For B3, the “effect on ATPase activity of Hsc70 NBD variants” value [7] is given as “stimulated by its J-protein (auxilin) if and only if the interdomain linker was present; also recorded: could be stimulated by its J-protein, auxilin”.
